Test [1] concerns the target T1, synthetic analog of the receptor binding motif DIII-2^V371–R388 (West Nile virus; residues agree with …, biotinylated C-terminal lysine).
T1 construct: numbers count on: the E glycoprotein; rDIII is of strain goshawk (GenBank DQ116961.1); source: synthetic peptide (Caslo)
T1 chain: VLIELEPPFGDSYIVVGR
The test is described as follows: far-Western, overlay or dot blot; dot blot: purified sdAbs (1 μl) spotted on nitrocellulose, blocked with 5% BSA; biotinylated peptide 1 μg/ml in phosphate buffer pH 7.0, 1 h; streptavidin-HRP. The note with it: both partners purified.

The target in test [2] is T2, synthetic analog of the receptor binding motif DIII-1^G299–K307 (West Nile virus; residues agree with …, biotinylated C-terminal lysine).
T2 construct: numbers count on: the E glycoprotein; rDIII is of strain goshawk (GenBank DQ116961.1); also called DIII-1^L299–K307 (so printed in the discussion); source: synthetic peptide (Caslo)
T2 chain: GTTYGVCSK
Described as above. As to conditions: both partners purified.

B1: sdAbA10 (VHH)
VHH: QVQVLASGGGLVQPGGSLRLSCAASGFTFSSNAMSWVRQAPGKGLEWVSTINSGGSRTTYTDSVKGRFTISRDNAKNTLYLQMNSLKPDDTAVYYCAKARVDLNLHGWGTSYEYDYWGQGTLVTVS
notes: also called sdAbA9
Consider B1, for which, in test [1], the binding result was “binds”.

B2: sdAbA1 (VHH)
VHH: QVQLLASGPGLVKPSQTLSLTCTVSGGAITSGYYGWSWIRQPPGKELEWMGVIASSGSTYYSPSLKSRTSISRDTSKSQFTLQLSSVTPEDTAVYYCARDAIQGPNFLYDYWGQGTLVTVS
In the case of B2, in test [2], the binding result is “binds”.

B3: sdAbA6 (VHH)
VHH: EVQVVASGGGLVQPGGSLSLSCAASGFTFSGYDMTWVRQAPGKGLEWVSSINSGGGNTNYADSVKGRFTISRDNAKNTLYLQMNSLKPEDTALYYCARRNDYGSLLAALDAWGQGTLVTVS
Consider B3, for which, in test [2], the binding result is “binds”.

Values taken from article PMC9012491, “Engineering the Single Domain Antibodies Targeting Receptor Binding Motifs Within the Domain III of West Nile Virus Envelope Glycoprotein” (Frontiers in Microbiology, 2022).
